Laboratory results from paper PMC8083607 (National Science Review, 2021).

Legend:
Test in all cases: ELISA
Details in all cases: both partners purified
[1] = target: T1, SARS-CoV-2 NTD (recombinant, limits not stated) (SARS-CoV-2 Wuhan-Hu-1 (MN908947.3), UniProt P0DTC2)
T1 construct: also called N-terminal domain

[2] = target: SARS-CoV NTD (SARS-CoV, strain not named (reference …, UniProt P59594))
[3] = target: SARS-CoV RBD (Severe acute respiratory syndrome …, UniProt P59594)
[4] = target: SARS-CoV-2 S2 (recombinant) (SARS-CoV-2 Wuhan-Hu-1 (MN908947.3 used …, UniProt P0DTC2))
[5] = target: SARS-CoV S2 (SARS-CoV, strain not named (reference …, UniProt P59594))
[6] = target: MERS-CoV S2 (MERS-CoV, strain not named (entry: …, UniProt K9N5Q8))
MERS-CoV S2 (MERS-CoV, strain not named, sequence (K9N5Q8 whole entry, looked up): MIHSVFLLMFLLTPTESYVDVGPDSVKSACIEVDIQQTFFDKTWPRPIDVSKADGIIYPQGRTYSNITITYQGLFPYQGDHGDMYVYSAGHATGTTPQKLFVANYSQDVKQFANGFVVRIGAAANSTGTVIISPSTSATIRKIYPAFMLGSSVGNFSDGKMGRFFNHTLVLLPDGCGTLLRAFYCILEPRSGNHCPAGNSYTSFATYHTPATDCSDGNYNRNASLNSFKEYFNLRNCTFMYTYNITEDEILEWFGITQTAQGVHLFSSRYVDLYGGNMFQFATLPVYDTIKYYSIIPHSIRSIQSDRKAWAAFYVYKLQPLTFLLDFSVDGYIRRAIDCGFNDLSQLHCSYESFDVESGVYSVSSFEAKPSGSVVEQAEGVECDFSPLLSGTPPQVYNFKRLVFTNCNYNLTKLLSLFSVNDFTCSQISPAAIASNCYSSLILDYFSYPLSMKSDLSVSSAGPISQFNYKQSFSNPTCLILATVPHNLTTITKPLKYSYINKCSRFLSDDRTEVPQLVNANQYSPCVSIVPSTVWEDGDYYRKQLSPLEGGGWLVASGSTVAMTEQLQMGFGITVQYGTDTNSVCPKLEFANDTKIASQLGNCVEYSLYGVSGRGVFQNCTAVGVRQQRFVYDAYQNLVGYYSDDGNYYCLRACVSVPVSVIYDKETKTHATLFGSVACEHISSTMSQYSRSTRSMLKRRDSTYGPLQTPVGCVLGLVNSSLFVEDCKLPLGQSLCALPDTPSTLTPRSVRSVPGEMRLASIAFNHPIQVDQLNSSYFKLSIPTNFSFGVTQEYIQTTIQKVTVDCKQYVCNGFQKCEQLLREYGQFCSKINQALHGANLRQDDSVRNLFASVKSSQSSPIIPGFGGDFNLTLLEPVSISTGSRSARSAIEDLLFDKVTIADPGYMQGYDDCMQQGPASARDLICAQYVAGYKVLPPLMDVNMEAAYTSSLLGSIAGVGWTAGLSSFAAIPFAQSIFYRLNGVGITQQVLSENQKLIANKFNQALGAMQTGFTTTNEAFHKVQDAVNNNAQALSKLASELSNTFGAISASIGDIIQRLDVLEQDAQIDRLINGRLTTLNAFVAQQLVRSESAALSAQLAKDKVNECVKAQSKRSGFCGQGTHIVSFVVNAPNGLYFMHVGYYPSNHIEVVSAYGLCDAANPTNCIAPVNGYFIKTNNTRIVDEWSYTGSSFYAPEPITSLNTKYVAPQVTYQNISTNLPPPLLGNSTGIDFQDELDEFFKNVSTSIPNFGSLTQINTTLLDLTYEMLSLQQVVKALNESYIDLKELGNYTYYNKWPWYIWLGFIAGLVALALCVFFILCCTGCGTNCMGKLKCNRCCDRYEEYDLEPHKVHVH

B1: FC07 (antibody, V domains shown)
VH: EVQLLESGGGLVQPGGSLRLSCAASGFTFGSYAMSWVRQAPGKGLEWVSSISGSGGSTYYADSAKGRFTISRDNSKNTLYLQMNSLRAEDTAVYYCAKSPNYDILTGYYNWAGYYFDYWGQGTLVTVSS
VL: DIELTQSPGTLSLSPGDRATLSCRASRGVSSNSLAWYRQRPGESPRLVISGASTRATGIPERFSGSGSGTDFSLSISRLQPEDFAVYYCQQYGSFPFTFGPGTTVDV
Question: What does the source list for B1?
Answer: binding result [1]: binds; binding result [2]: binds

B2: FC06 (antibody, V domains shown)
VH: EVQLLESGGGVVQPGRSLRLSCAASGFTFSSYAMHWVRQAPGEGLEWVAVISYDGSNKYYADSVKGRFTISRDNSKNTLYLQMNSLRAGDTAVYYCARLNYYGSGFYYRLGDDYWGQGTLVTVSS
VL: DIELTQSPSSLSASEGDRVTITCRASQGIRNDLGWYQQKPGKAPKRLIYGAPSLQSGVPSRFSGSGSGTEFTLTISTLQPEDSATYYCLQHNKYPWTFGQGTKVEIK
Question: Does B2 bind [1]?
Answer: binds

B3: FC11 (antibody, V domains shown)
VH: EVQLLESGGGVVQPGRSLRLSCAASGFTFSYYGMHWVRQAPGTGLEWVAVISYDGSNEYYADSVKGRFTISRDNSKNTLYLQMNSLRAEDTAVYYCAKAMFLGDSSGLTGLDMDVWGQGTTVTVSS
VL: DIELTQSPGTLSLSPGERATLSCRASQSVSSYLAWYQQKPGQAPRLLIYDASNRATGIPARFSGSGSGTDFTLTISSLEPEDFALYYCQQRGNWPPTFGGGTKLEIK
Question: Does B3 bind [3]?
Answer: binds

B4: FC124 (antibody, V domains shown)
VH: EVQLLESGGGVVQPGRSLRLSCAASGFTFSSYAMHWVRQAPGKGLEWVALISYDGINKYYADSVNGRFTISRDNSKYTLYLQMNSLRAEDTAVYYCARAHRGSYYYGMDVWGQGTMVTVSS
VL: DIELTQSPGTLSLSPGERATLYCRASQSVSSSYLAWYQQKPGQAPRLLIYGAFGRAAGIPDRFRGSGSGTQFTLTISRLEPEDSAVYFCQQYGQSPLYSFGQGTKLEIK
Question: What does the source list for B4?
Answer: binding result [4]: binds; binding result [5]: binds; binding result [6]: binds

B5: FC118 (antibody, V domains shown)
VH: EVQLLESGGGVVQPGRSLRLSCAASGFTFSSYAMHWVRQAPGKGLEWVAVISYDGSNKYYADSVKGRFTISRDNSKNTLYLQMNSLRAEDTAVYYCARARGGSYLYGMDVWGQGAMVTVSS
VL: DIELTQSPSSLAASVGDTVTITCRASQTIGKYLTWYQKKPGRAPDLLIYAASRLQSGVPSRFSGRASGTEFTLTISSLQPEDFATYFCQHTYRTLSFGPGTKVDLK
Question: Does B5 bind [4]?
Answer: binds

Question: Does B5 bind [5]?
Answer: binds

Question: Does B5 bind [6]?
Answer: binds

B6: FC122 (antibody, V domains shown)
VH: EVQLLESGGGVVQPGRSLRLSCAASGFTFSSYAMHWVRQAPGKGLEWVALISYDGINKYYADSVNGRFTISRDNSKYTLYLQMNSLRAEDTAVYYCARAHRGSYYYGMDVWGQGTMVTVSS
VL: DIELTQSPSSLSASVGDSVTITCRGSQIISRYLNWYQQKPGKAPKLLIYAASTLQSGVPSRFSGSGSGTEFTLSISSLEPEDFATYYCQQSYAIPYTFGQGTRLEI
Question: Does B6 bind [4]?
Answer: binds

B7: FC120 (antibody, V domains shown)
VH: EVQLLESGAEVKKPGASVKVSCKASGYTFTSYYMHWVRQAPGQGLEWMGIINPSGGSTSYAQKFQGRVTMTRDTSTSTVYMELSSLRSEDTAVYYCARGGGHALDIWGQGTMVTVSS
VL: QSVLTQPPSVSGAPGQKVTISCSGSSSNIGNNYVSWYQQLPGTAPKLLIYDNNKRPSGIPDRFSGSKSGTSATLGITGLQTGDEADYYCGTWDSSLSAWVFGGGTKLTVL
Question: Does B7 bind [4]?
Answer: binds

Question: Does B7 bind [5]?
Answer: binds

Question: Does B7 bind [6]?
Answer: binds

B8: FC05 (antibody, V domains shown)
VH: VQLLEQSGAEVKKPGASVRVSCKVSGYTLPEVAMHWVRQAPGKGLEWMGGFDPEDGETMYAQKFQGRVTMTEDTSTDTAYMELSSLRSEDTAVYYCATTTPFSSSYWFDPWGQGTLVTVSS
VL: QSVLTQAPSVSGAPGQKVTISCSGSSSNIGNNYVSWYQQLPGTAPKLLIYDNNKRPSGIPDRFSGSKSGTSATLGITGLQTGDEADYYCGTWDSSLSAVVFGGGTKLTVL
notes: also called FC05 mAb
Question: Does B8 bind [1]?
Answer: binds
